# Read-outs that look alike come from different tables or passages of the source.
# Experiments:
# [1] = target: ZIKV envelope protein (E) in infected Vero cells (Zika virus (MR766 strain)); assay: proximity ligation
# [2] = target: ZIKV envelope protein (E) in infected Vero cells (Zika virus (MR766 strain)); assay: proximity ligation; remark: listed apart in the source
substance,measurement,setting,value
"naturally occurring dynein (cytoplasmic dynein-1) of Vero cells, detected by its heavy chain (natural protein)",PLA dots per cell (dots per cell),[1],> 6
same,PLA dots per cell (dots per cell),[2],< 1
